Measured values reported in patent US20200231652A1.

Experiments:
TGF-β2 = TGF-β2 (UniProt P61812); assay: cell-based or functional assay
TGF-β3 = TGF-β3 (UniProt P10600); assay: cell-based or functional assay
TGF-β1 [1] = target: TGF-β1 (UniProt P01137); assay: cell-based or functional assay
TGF-β1 [2] = target: TGF-β1 (UniProt P01137)

TGF-β1, sequence (P01137 279-390 limits assumed): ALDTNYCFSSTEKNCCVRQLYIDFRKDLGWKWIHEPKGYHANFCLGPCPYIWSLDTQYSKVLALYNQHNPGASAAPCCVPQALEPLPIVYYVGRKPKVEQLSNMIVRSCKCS
TGF-β2, sequence (P61812 303-414 limits assumed): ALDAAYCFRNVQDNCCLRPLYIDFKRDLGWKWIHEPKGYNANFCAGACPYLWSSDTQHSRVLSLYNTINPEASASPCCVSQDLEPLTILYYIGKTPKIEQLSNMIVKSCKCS
TGF-β3, sequence (P10600 301-412 limits assumed): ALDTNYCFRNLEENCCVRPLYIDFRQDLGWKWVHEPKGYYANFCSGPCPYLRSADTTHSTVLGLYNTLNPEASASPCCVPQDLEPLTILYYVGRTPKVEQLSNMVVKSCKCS

| Binder | Av IC50, TGF-β neutralization, Mv1Lu cell luciferase reporter assay (TGF-β2) [pM] | Av IC50, TGF-β neutralization, Mv1Lu cell luciferase reporter assay (TGF-β3) [pM] | Av IC50, TGF-β neutralization, Mv1Lu cell luciferase reporter assay (TGF-β1 [1]) [pM] | IC50, A549 cell IL-11 release assay (TGF-β1 [1]) [pM] | Fold Change Fc-T2m, A549 cell IL-11 release assay [table] (TGF-β1 [2]) [fold] | Fold Change T22d35, A549 cell IL-11 release assay [table] (TGF-β1 [2]) [fold] | IC50, A549 cell IL-11 release assay [table] (TGF-β1 [2]) [pM] |
| --- | --- | --- | --- | --- | --- | --- | --- |
| hIgG2Fc-CCCC-T22d35 fusion (Fc fusion) ERKCCVECPPCPAPPVAGPSVFLFPPKPKDTLMISRTPEVTCVVVDVSHEDPEVQFNWYVDGVEVHNAKTKPREEQFNSTFRVVSVLTVVHQDWLNGKEYKCKVSNKGLPAPIEKTISKTKGQPREPQVYTLPPSREEMTKNQVSLTCLVKGFYPSDISVEWESNGQPENNYKTTPPMLDSDGSFFLYSKLTVDKSRWQQGNVFSCSVMHEALHNHYTQKSLSLSPGKIPPHVQKSVNNDMIVTDNNGAVKFPQLCKFCDVRFSTCDNQKSCMSNCSITSICEKPQEVCVAVWRKNDENITLETVCHDPKLPYHDFILEDAASPKCIMKEKKKPGETFFMCSCSSDECNDNIIFSEEYNTSNPDIPPHVQKSVNNDMIVTDNNGAVKFPQLCKFCDVRFSTCDNQKSCMSNCSITSICEKPQEVCVAVWRKNDENITLETVCHDPKLPYHDFILEDAASPKCIMKEKKKPGETFFMCSCSSDECNDNIIFSEEYNTSNPD | 108000 | 0.026 | 1.45 | 5 | 9 | 94 | 6.17 |
| FC5-Fc-T22d35 (Fc fusion) EVQLQASGGGLVQAGGSLRLSCAASGFKITHYTMGWFRQAPGKEREFVSRITWGGDNTFYSNSVKGRFTISRDNAKNTVYLQMNSLKPEDTADYYCAAGSTSTATPLRVDYWGKGTQVTVSSASEPRGPTIKPCPPCKCPAPNLLGGPSVFIFPPKIKDVLMISLSPIVTCVVVDVSEDDPDVQISWFVNNVEVHTAQTQTHREDYNSTLRVVSALPIQHQDWMSGKEFKCKVNNKDLPAPIERTISKPKGSVRAPQVYVLPPPEEEMTKKQVTLTCMVTDFMPEDIYVEWTNNGKTELNYKNTEPVLDSDGSYFMYSKLRVEKKNWVERNSYSCSVVHEGLHNHHTTKSFSRTPGTGIPPHVQKSVNNDMIVTDNNGAVKFPQLCKFCDVRFSTCDNQKSCMSNCSITSICEKPQEVCVAVWRKNDENITLETVCHDPKLPYHDFILEDAASPKCIMKEKKKPGETFFMCSCSSDECNDNIIFSEEYNTSNPDIPPHVQKSVNNDMIVTDNNGAVKFPQLCKFCDVRFSTCDNQKSCMSNCSITSICEKPQEVCVAVWRKNDENITLETVCHDPKLPYHDFILEDAASPKCIMKEKKKPGETFFMCSCSSDECNDNIIFSEEYNTSNPD | 96200 | 0.001 | 0.001 | 5 | 10 | 101 | 5.73 |
| FC5-Fc-T2m (Fc fusion) EVQLQASGGGLVQAGGSLRLSCAASGFKITHYTMGWFRQAPGKEREFVSRITWGGDNTFYSNSVKGRFTISRDNAKNTVYLQMNSLKPEDTADYYCAAGSTSTATPLRVDYWGKGTQVTVSSASEPRGPTIKPCPPCKCPAPNLLGGPSVFIFPPKIKDVLMISLSPIVTCVVVDVSEDDPDVQISWFVNNVEVHTAQTQTHREDYNSTLRVVSALPIQHQDWMSGKEFKCKVNNKDLPAPIERTISKPKGSVRAPQVYVLPPPEEEMTKKQVTLTCMVTDFMPEDIYVEWTNNGKTELNYKNTEPVLDSDGSYFMYSKLRVEKKNWVERNSYSCSVVHEGLHNHHTTKSFSRTPGTGIPPHVQKSVNNDMIVTDNNGAVKFPQLCKFCDVRFSTCDNQKSCMSNCSITSICEKPQEVCVAVWRKNDENITLETVCHDPKLPYHDFILEDAASPKCIMKEKKKPGETFFMCSCSSDECNDNIIFSEEYNTSNPD | 433000 | 0.015 | 0.017 | – | – | – | – |
